Columns and labels:
[1] = system: Eco UvrA + Eco UvrB + Eco UvrC (Escherichia coli); test: cleavage_in_vitro; settings: central (+)-trans-BPDE-N2-guanine adduct; 37 C 20 min; abolished by UvrA preincubation at 65 C for 10 min; figure legend says cis adduct, text says trans
[2] = system: Bca UvrA + Eco UvrB + Eco UvrC (Bacillus caldotenax / Escherichia coli); test: cleavage_in_vitro; settings: central (+)-trans-BPDE-N2-guanine adduct; 10 nM UvrA, 100 nM UvrB, 5 nM UvrC, 37 C 20 min; 83% and 60% after UvrA preincubation at 65 C for 10 and 30 min; figure legend says cis adduct, text says trans
[3] = system: UvrA (Bca) (Bacillus caldotenax); test: EMSA; settings: central (+)-trans-BPDE-N2-guanine adduct; ABC buffer, 10 mM MgCl2, 1 mM ATP, 37 C, 20 min; fitted as UvrA dimer
[4] = target: Bca UvrA + Eco UvrB (Bacillus caldotenax / Escherichia coli) (UniProt P0A8F8); test: EMSA; settings: central (+)-trans-BPDE-N2-guanine adduct; 10 nM UvrA, 100 nM Eco UvrB, 1 mM ATP, 10 mM MgCl2, 37 C; all substrate bound at 250 nM Eco UvrB
[5] = system: UvrA (Eco) (Escherichia coli); test: EMSA; settings: central (+)-trans-BPDE-N2-guanine adduct; CITED Zou et al. 1998; cited from earlier work
[6] = target: UvrA2 Δβh UvrB (Bca) UvrB deletion Gln97-Asp112 replaced by Gly (Bacillus caldotenax) (UniProt P56981); settings: UV damage, 200 J/m2; ATPase; 19.0 without DNA
[7] = system: UvrA (Bca) (Bacillus caldotenax); settings: UV damage, 200 J/m2; ATPase; 13.2 without DNA; 37 C
[8] = system: UvrA2UvrB (Bca) (Bacillus caldotenax); settings: UV damage, 200 J/m2; ATPase; 18.3 without DNA
[9] = system: UvrA (Bca) (Bacillus caldotenax); settings: ATPase stimulated about 10-fold by 5.6 nM dsDNA (control 4.42; 18.4 at 0.224 nM), 37 C
[10] = system: UvrA (Eco) (Escherichia coli); settings: ATPase inhibited 23% by 0.224 nM dsDNA (control 71.5), 37 C
[11] = target: T1, Bacillus caldotenax (Bca) UvrA protein
T1 chain: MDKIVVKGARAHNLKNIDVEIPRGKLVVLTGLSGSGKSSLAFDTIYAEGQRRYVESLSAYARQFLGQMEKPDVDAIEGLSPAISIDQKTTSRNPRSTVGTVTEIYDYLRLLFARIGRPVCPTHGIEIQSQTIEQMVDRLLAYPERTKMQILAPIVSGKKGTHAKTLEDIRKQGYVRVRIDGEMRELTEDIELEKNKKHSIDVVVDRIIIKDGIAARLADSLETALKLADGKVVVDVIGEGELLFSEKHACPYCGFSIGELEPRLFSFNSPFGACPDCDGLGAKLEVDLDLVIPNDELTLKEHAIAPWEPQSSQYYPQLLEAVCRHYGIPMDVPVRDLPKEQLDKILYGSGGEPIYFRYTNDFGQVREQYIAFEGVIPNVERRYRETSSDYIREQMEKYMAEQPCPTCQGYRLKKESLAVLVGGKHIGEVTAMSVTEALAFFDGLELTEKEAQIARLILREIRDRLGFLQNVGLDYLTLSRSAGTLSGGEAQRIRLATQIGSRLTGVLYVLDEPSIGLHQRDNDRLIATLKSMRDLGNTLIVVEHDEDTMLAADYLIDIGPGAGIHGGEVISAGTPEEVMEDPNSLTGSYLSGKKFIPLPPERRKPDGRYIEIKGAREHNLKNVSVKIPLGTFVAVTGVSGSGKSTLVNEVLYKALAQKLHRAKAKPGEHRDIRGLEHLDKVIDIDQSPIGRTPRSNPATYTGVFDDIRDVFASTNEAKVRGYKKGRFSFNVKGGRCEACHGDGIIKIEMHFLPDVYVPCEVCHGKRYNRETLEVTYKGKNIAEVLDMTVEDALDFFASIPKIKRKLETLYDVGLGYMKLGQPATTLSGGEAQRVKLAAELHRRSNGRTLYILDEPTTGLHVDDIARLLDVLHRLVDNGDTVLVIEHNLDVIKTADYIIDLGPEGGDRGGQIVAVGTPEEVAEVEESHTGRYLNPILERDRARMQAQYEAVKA

[12] = target: T2, E. coli UvrB protein (Escherichia coli, UniProt A7ZJI8 1-673); test: gel mobility shift with BPDE-DNA substrate, 37° C.
T2 construct: also called Eco UvrB; UvrB (Eco)
T2 sequence: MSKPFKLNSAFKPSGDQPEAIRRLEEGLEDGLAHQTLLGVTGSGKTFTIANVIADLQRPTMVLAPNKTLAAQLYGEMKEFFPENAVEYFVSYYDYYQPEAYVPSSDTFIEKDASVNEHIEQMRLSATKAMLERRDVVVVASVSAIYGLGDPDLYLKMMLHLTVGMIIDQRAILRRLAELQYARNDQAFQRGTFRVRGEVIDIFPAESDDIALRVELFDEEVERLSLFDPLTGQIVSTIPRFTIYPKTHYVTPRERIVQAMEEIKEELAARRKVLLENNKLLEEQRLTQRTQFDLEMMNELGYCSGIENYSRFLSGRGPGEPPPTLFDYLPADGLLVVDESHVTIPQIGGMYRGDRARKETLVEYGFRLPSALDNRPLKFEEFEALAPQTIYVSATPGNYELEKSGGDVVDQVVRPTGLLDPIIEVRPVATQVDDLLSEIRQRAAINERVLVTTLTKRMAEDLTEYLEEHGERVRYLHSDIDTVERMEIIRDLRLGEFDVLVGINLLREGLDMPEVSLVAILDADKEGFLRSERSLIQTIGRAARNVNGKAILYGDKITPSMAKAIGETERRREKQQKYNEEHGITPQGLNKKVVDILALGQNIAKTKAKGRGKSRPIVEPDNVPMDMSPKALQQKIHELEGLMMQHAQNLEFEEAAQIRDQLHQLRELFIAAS

In the case of (+)-trans-BPDE-N2-dG 50-bp duplex, the activity [1] is reported as 67 % incised, the activity [2] is reported as 89 % incised and the Kd [3] is reported as 25 nM. For the same molecule, the binding (% bound as UvrB-DNA) [4] was over 50 and the Kd [5] was 7.5 nM.

Work on UV-irradiated pUC18 DNA yielded an activity (mol ATP/mol protein/min) [6] of 29, an activity (mol ATP/mol protein/min) [7] of 17 and an activity (mol ATP/mol protein/min) [8] of 22.

Work on pGL-2 plasmid DNA (undamaged) yielded an activity (uM ADP/min/uM UvrA) [9] of 45.6 and an activity (uM ADP/min/uM UvrA) [10] of 55.4.

B1: Bacillus caldotenax (Bca) UvrB protein, wild type (protein)
chain: VEGRFQLVAPYEPQGDQPQAIAKLVDGLRRGVKHQTLLGATGTGKTFTISNVIAQVNKPTLVIAHNKTLAGQLYSELKEFFPHNAVEYFVSYYDYYQPEAYVPQTDTYIEKDAKINDEIDKLRHSATSALFERRDVIIVASVSCIYGLGSPEEYRELVVSLRVGMEIERNALLRRLVDIQYDRNDIDFRRGTFRVRGDVVEIFPASRDEHCIRVEFFGDEIERIREVDALTGEVLGEREHVAIFPASHFVTREEKMRLAIQNIEQELEERLAELRAQGKLLEAQRLEQRTRYDLEMMREMGFCSGIENYSRHLALRPPGSTPYTLLDYFPDDFLIIVDESHVTLPQLRGMYNGDRARKQVLVDHGFRLPSALDNRPLTFEEFEQKINQIIYVSATPGPYELEHSPGVVEQIIRPTGLLDPTIDVRPTKGQIDDLIGEIRERVERNERTLVTTLTKKMAEDLTDYLKEAGIKVAYLHSEIKTLERIEIIRDLRLGKYDVLVGINLLREGLDIPEVSLVAILDADKEGFLRSERSLIQTIGRAARNANGHVIMYADTITKSMEIAIQETKRRRAIQEEYNRKHGIVPRTVKKEIRDVIRATYAAEETEMYEAKPAAAMTKQEREELIRTLEAEMKEAAKALDFERAAQLRDIIFELKAEG
With B1 the ATPase activity (mol of ATP hydrolyzed/mol of protein/min) [11] was 18.3 and the ATPase activity (with UV-irradiated DNA) (mol of ATP hydrolyzed/mol of protein/min) [11] was 22.

B2: β-hairpin deletion mutant of B. caldotenax UvrB (Δβh UvrB) (protein)
chain: VEGRFQLVAPYEPQGDQPQAIAKLVDGLRRGVKHQTLLGATGTGKTFTISNVIAQVNKPTLVIAHNKTLAGQLYSELKEFFPHNAVEYFVSYYDYYGAKINDEIDKLRHSATSALFERRDVIIVASVSCIYGLGSPEEYRELVVSLRVGMEIERNALLRRLVDIQYDRNDIDFRRGTFRVRGDVVEIFPASRDEHCIRVEFFGDEIERIREVDALTGEVLGEREHVAIFPASHFVTREEKMRLAIQNIEQELEERLAELRAQGKLLEAQRLEQRTRYDLEMMREMGFCSGIENYSRHLALRPPGSTPYTLLDYFPDDFLIIVDESHVTLPQLRGMYNGDRARKQVLVDHGFRLPSALDNRPLTFEEFEQKINQIIYVSATPGPYELEHSPGVVEQIIRPTGLLDPTIDVRPTKGQIDDLIGEIRERVERNERTLVTTLTKKMAEDLTDYLKEAGIKVAYLHSEIKTLERIEIIRDLRLGKYDVLVGINLLREGLDIPEVSLVAILDADKEGFLRSERSLIQTIGRAARNANGHVIMYADTITKSMEIAIQETKRRRAIQEEYNRKHGIVPRTVKKEIRDVIRATYAAEETEMYEAKPAAAMTKQEREELIRTLEAEMKEAAKALDFERAAQLRDIIFELKAEG
In the case of B2, the ATPase activity (mol of ATP hydrolyzed/mol of protein/min) [11] is reported as 19 and the ATPase activity (with UV-irradiated DNA) (mol of ATP hydrolyzed/mol of protein/min) [11] is reported as 29.

B3: Bacillus caldotenax (Bca) UvrA protein (enzyme)
chain: MDKIVVKGARAHNLKNIDVEIPRGKLVVLTGLSGSGKSSLAFDTIYAEGQRRYVESLSAYARQFLGQMEKPDVDAIEGLSPAISIDQKTTSRNPRSTVGTVTEIYDYLRLLFARIGRPVCPTHGIEIQSQTIEQMVDRLLAYPERTKMQILAPIVSGKKGTHAKTLEDIRKQGYVRVRIDGEMRELTEDIELEKNKKHSIDVVVDRIIIKDGIAARLADSLETALKLADGKVVVDVIGEGELLFSEKHACPYCGFSIGELEPRLFSFNSPFGACPDCDGLGAKLEVDLDLVIPNDELTLKEHAIAPWEPQSSQYYPQLLEAVCRHYGIPMDVPVRDLPKEQLDKILYGSGGEPIYFRYTNDFGQVREQYIAFEGVIPNVERRYRETSSDYIREQMEKYMAEQPCPTCQGYRLKKESLAVLVGGKHIGEVTAMSVTEALAFFDGLELTEKEAQIARLILREIRDRLGFLQNVGLDYLTLSRSAGTLSGGEAQRIRLATQIGSRLTGVLYVLDEPSIGLHQRDNDRLIATLKSMRDLGNTLIVVEHDEDTMLAADYLIDIGPGAGIHGGEVISAGTPEEVMEDPNSLTGSYLSGKKFIPLPPERRKPDGRYIEIKGAREHNLKNVSVKIPLGTFVAVTGVSGSGKSTLVNEVLYKALAQKLHRAKAKPGEHRDIRGLEHLDKVIDIDQSPIGRTPRSNPATYTGVFDDIRDVFASTNEAKVRGYKKGRFSFNVKGGRCEACHGDGIIKIEMHFLPDVYVPCEVCHGKRYNRETLEVTYKGKNIAEVLDMTVEDALDFFASIPKIKRKLETLYDVGLGYMKLGQPATTLSGGEAQRVKLAAELHRRSNGRTLYILDEPTTGLHVDDIARLLDVLHRLVDNGDTVLVIEHNLDVIKTADYIIDLGPEGGDRGGQIVAVGTPEEVAEVEESHTGRYLNPILERDRARMQAQYEAVKA
notes: Full-length recombinant protein made in E. coli as a UvrA-intein-CBD fusion and released by DTT cleavage; also called B. caldotenax UvrA; UvrASD
B3: binds [12].
